Measured values from patent US20130039917A1.

Biological target: PRELP expressed on the cell surface of human cancer cells (human), P51888
Assay: cell-based or functional assay

Chain of PRELP expressed on the cell surface of human cancer cells (human), P51888 (P51888 21-382): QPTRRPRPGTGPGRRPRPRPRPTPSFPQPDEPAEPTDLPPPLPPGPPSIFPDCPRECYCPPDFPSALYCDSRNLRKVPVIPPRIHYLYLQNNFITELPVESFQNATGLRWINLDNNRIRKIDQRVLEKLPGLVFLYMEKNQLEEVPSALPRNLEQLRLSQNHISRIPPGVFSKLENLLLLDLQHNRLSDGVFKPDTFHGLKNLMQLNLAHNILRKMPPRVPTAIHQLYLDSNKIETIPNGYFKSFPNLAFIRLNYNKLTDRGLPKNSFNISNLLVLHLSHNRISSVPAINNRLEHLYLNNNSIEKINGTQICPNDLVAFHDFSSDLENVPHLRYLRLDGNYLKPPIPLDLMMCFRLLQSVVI

- apoptosis (Annexin V-FITC and propidium iodide staining) of CLL cells, 18 hrs, 2.5 ug antibody: 16.9%
- apoptosis (Annexin V-FITC and propidium iodide staining) of CLL cells, 18 hrs, 5 ug antibody: 32.2%
- apoptosis (Annexin V-FITC and propidium iodide staining) of CLL cells, 18 hrs, 7.5 ug antibody: 39.2%
B1: anti-PRELP-SS clone 6G1-G11 (antibody, mouse IgM, V domains shown)
VH: EVKLQQSGAELVKPGASVKLSCTASGFNIKDTYMHWVKQRPEQGLEWIGRIDPANGNTKYDPKFQGKATITADTSSNTAYLQLSSLTSEDTAVYYCARSTTVVVDYWGQGTTLTVSS
VL: DILLTQTPAIKSASPGEKVTMTCSASSSISYMHWYQQKPGTSPKRWIYDTSKLASGVPARFSGSGSGTSYSLTISSMEAEDAATYYCHQRSSYPTFGAGTKLELK
